Results as given in patent publication US20260226184A1.

What was measured:
[1] = target: CAR that binds human CD19 (scFv derived from anti-human CD19 antibody clone FMC69, human CD28 and CD3zeta intracellular signaling domains), on human T cells; test: flow cytometry, dose-dependent staining of CD19 CAR T cells, y-axis %Binding; the value stands above the plot, in which only this curve rises
[2] = target: IL-2R (IL-2 receptor on the BCMA CAR T cells) (human) (UniProt P01589); test: cell-based or functional assay
[3] = target: CAR that binds human BCMA (scFv derived from anti-human BCMA antibody clone MSK54, human 41BB and CD3zeta intracellular signaling domains), on human T cells; test: cell-based or functional assay
[4] = target: CAR that binds human BCMA (scFv derived from anti-human BCMA antibody clone MSK54, human 41BB and CD3zeta intracellular signaling domains), on human T cells; test: flow cytometry, staining of BCMA CAR T cells with varying concentrations, Alexa647-labeled anti-FLAG secondary
[5] = target: CAR that binds human BCMA (scFv derived from anti-human BCMA antibody clone MSK54, human 41BB and CD3zeta intracellular signaling domains), on human T cells; test: flow cytometry, dose-dependent staining of BCMA CAR T cells, secondary Alexa647-labeled anti-FLAG antibody, y-axis %Binding
[6] = target: CAR that binds human BCMA (scFv derived from anti-human BCMA antibody clone MSK54, human 41BB and CD3zeta intracellular signaling domains), on human T cells; test: flow cytometry, anti-CD45 (y) against AF647-tagged BCMA-CH3 (x); CAR + Treatment mouse (BCMA CAR T cells and BCMA-muIL2); Lung
[7] = target: CAR that binds human BCMA (scFv derived from anti-human BCMA antibody clone MSK54, human 41BB and CD3zeta intracellular signaling domains), on human T cells; test: flow cytometry, anti-CD45 (y) against AF647-tagged BCMA-CH3 (x); CAR + Treatment mouse (BCMA CAR T cells and BCMA-muIL2); Blood
[8] = target: CAR that binds human BCMA (scFv derived from anti-human BCMA antibody clone MSK54, human 41BB and CD3zeta intracellular signaling domains), on human T cells; test: flow cytometry, anti-CD45 (y) against AF647-tagged BCMA-CH3 (x); CAR + Treatment mouse (BCMA CAR T cells and BCMA-muIL2); Liver
[9] = target: CAR that binds human BCMA (scFv derived from anti-human BCMA antibody clone MSK54, human 41BB and CD3zeta intracellular signaling domains), on human T cells; test: flow cytometry, anti-CD45 (y) against AF647-tagged BCMA-CH3 (x); CAR + Treatment mouse (BCMA CAR T cells and BCMA-muIL2); Spleen
[10] = target: CAR that binds human BCMA (scFv derived from anti-human BCMA antibody clone MSK54, human 41BB and CD3zeta intracellular signaling domains), on human T cells; test: flow cytometry, anti-CD45 (y) against AF647-tagged BCMA-CH3 (x); CAR + Treatment mouse (BCMA CAR T cells and BCMA-muIL2); Kidney
[11] = target: CAR that binds human BCMA (scFv derived from anti-human BCMA antibody clone MSK54, human 41BB and CD3zeta intracellular signaling domains), on human T cells; test: flow cytometry, anti-CD45 (y) against AF647-tagged BCMA-CH3 (x); CAR + Treatment mouse (BCMA CAR T cells and BCMA-muIL2); Tumor Eye
[12] = target: CAR that binds human BCMA (scFv derived from anti-human BCMA antibody clone MSK54, human 41BB and CD3zeta intracellular signaling domains), on human T cells; test: flow cytometry, anti-CD45 (y) against AF647-tagged BCMA-CH3 (x); CAR + Treatment mouse (BCMA CAR T cells and BCMA-muIL2); Lymph node
[13] = target: CAR that binds human BCMA (scFv derived from anti-human BCMA antibody clone MSK54, human 41BB and CD3zeta intracellular signaling domains), on human T cells; test: flow cytometry, anti-CD45 (y) against AF647-tagged BCMA-CH3 (x); CAR + Treatment mouse (BCMA CAR T cells and BCMA-muIL2); Bone Marrow Left
[14] = target: CAR that binds human BCMA (scFv derived from anti-human BCMA antibody clone MSK54, human 41BB and CD3zeta intracellular signaling domains), on human T cells; test: flow cytometry, anti-CD45 (y) against AF647-tagged BCMA-CH3 (x); CAR + Treatment mouse (BCMA CAR T cells and BCMA-muIL2); Bone Marrow Right
[15] = target: CAR that binds human BCMA (scFv derived from anti-human BCMA antibody clone MSK54, human 41BB and CD3zeta intracellular signaling domains), on human T cells; test: flow cytometry, anti-CD45 (y) against AF647-tagged BCMA-CH3 (x); CAR only mouse, lower row (CAR T cells without CAR-engager; the text says little to no CD45+ cells persisted); Lung
[16] = target: CAR that binds human BCMA (scFv derived from anti-human BCMA antibody clone MSK54, human 41BB and CD3zeta intracellular signaling domains), on human T cells; test: flow cytometry, anti-CD45 (y) against AF647-tagged BCMA-CH3 (x); CAR only mouse, upper row (CAR T cells without CAR-engager; the text says little to no CD45+ cells persisted); Lung
[17] = target: CAR that binds human BCMA (scFv derived from anti-human BCMA antibody clone MSK54, human 41BB and CD3zeta intracellular signaling domains), on human T cells; test: flow cytometry, anti-CD45 (y) against AF647-tagged BCMA-CH3 (x); CAR only mouse, lower row (CAR T cells without CAR-engager; the text says little to no CD45+ cells persisted); Blood
[18] = target: CAR that binds human BCMA (scFv derived from anti-human BCMA antibody clone MSK54, human 41BB and CD3zeta intracellular signaling domains), on human T cells; test: flow cytometry, anti-CD45 (y) against AF647-tagged BCMA-CH3 (x); CAR only mouse, upper row (CAR T cells without CAR-engager; the text says little to no CD45+ cells persisted); Blood
[19] = target: CAR that binds human BCMA (scFv derived from anti-human BCMA antibody clone MSK54, human 41BB and CD3zeta intracellular signaling domains), on human T cells; test: flow cytometry, anti-CD45 (y) against AF647-tagged BCMA-CH3 (x); CAR only mouse, lower row (CAR T cells without CAR-engager; the text says little to no CD45+ cells persisted); Liver
[20] = target: CAR that binds human BCMA (scFv derived from anti-human BCMA antibody clone MSK54, human 41BB and CD3zeta intracellular signaling domains), on human T cells; test: flow cytometry, anti-CD45 (y) against AF647-tagged BCMA-CH3 (x); CAR only mouse, upper row (CAR T cells without CAR-engager; the text says little to no CD45+ cells persisted); Liver
[21] = target: CAR that binds human BCMA (scFv derived from anti-human BCMA antibody clone MSK54, human 41BB and CD3zeta intracellular signaling domains), on human T cells; test: flow cytometry, anti-CD45 (y) against AF647-tagged BCMA-CH3 (x); CAR only mouse, upper row (CAR T cells without CAR-engager; the text says little to no CD45+ cells persisted); Spleen
[22] = target: CAR that binds human BCMA (scFv derived from anti-human BCMA antibody clone MSK54, human 41BB and CD3zeta intracellular signaling domains), on human T cells; test: flow cytometry, anti-CD45 (y) against AF647-tagged BCMA-CH3 (x); CAR only mouse, lower row (CAR T cells without CAR-engager; the text says little to no CD45+ cells persisted); Kidney
[23] = target: CAR that binds human BCMA (scFv derived from anti-human BCMA antibody clone MSK54, human 41BB and CD3zeta intracellular signaling domains), on human T cells; test: flow cytometry, anti-CD45 (y) against AF647-tagged BCMA-CH3 (x); CAR only mouse, upper row (CAR T cells without CAR-engager; the text says little to no CD45+ cells persisted); Kidney
[24] = target: CAR that binds human BCMA (scFv derived from anti-human BCMA antibody clone MSK54, human 41BB and CD3zeta intracellular signaling domains), on human T cells; test: flow cytometry, anti-CD45 (y) against AF647-tagged BCMA-CH3 (x); CAR only mouse, lower row (CAR T cells without CAR-engager; the text says little to no CD45+ cells persisted); Lymph node
[25] = target: CAR that binds human BCMA (scFv derived from anti-human BCMA antibody clone MSK54, human 41BB and CD3zeta intracellular signaling domains), on human T cells; test: flow cytometry, anti-CD45 (y) against AF647-tagged BCMA-CH3 (x); CAR only mouse, upper row (CAR T cells without CAR-engager; the text says little to no CD45+ cells persisted); Lymph node
[26] = target: CAR that binds human BCMA (scFv derived from anti-human BCMA antibody clone MSK54, human 41BB and CD3zeta intracellular signaling domains), on human T cells; test: flow cytometry, anti-CD45 (y) against AF647-tagged BCMA-CH3 (x); CAR only mouse, lower row (CAR T cells without CAR-engager; the text says little to no CD45+ cells persisted); Bone Marrow Left
[27] = target: CAR that binds human BCMA (scFv derived from anti-human BCMA antibody clone MSK54, human 41BB and CD3zeta intracellular signaling domains), on human T cells; test: flow cytometry, anti-CD45 (y) against AF647-tagged BCMA-CH3 (x); CAR only mouse, upper row (CAR T cells without CAR-engager; the text says little to no CD45+ cells persisted); Bone Marrow Left
[28] = target: CAR that binds human BCMA (scFv derived from anti-human BCMA antibody clone MSK54, human 41BB and CD3zeta intracellular signaling domains), on human T cells; test: flow cytometry, anti-CD45 (y) against AF647-tagged BCMA-CH3 (x); CAR only mouse, lower row (CAR T cells without CAR-engager; the text says little to no CD45+ cells persisted); Bone Marrow Right
[29] = target: CAR that binds human BCMA (scFv derived from anti-human BCMA antibody clone MSK54, human 41BB and CD3zeta intracellular signaling domains), on human T cells; test: flow cytometry, anti-CD45 (y) against AF647-tagged BCMA-CH3 (x); CAR only mouse, upper row (CAR T cells without CAR-engager; the text says little to no CD45+ cells persisted); Bone Marrow Right
[30] = target: CAR that binds human BCMA (scFv derived from anti-human BCMA antibody clone MSK54, human 41BB and CD3zeta intracellular signaling domains), on human T cells; test: cell-based or functional assay; remark: listed apart in the source

Chain of UniProt P01589 (P01589 22-272, chain 1 of 3): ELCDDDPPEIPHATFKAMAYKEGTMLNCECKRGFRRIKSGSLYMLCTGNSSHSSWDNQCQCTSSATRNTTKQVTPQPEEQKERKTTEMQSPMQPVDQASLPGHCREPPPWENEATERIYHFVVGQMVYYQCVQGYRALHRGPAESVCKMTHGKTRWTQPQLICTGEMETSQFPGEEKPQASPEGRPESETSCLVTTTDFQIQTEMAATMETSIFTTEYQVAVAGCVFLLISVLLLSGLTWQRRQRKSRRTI
Chain of UniProt P01589 (P14784 27-551, chain 2 of 3, further chain): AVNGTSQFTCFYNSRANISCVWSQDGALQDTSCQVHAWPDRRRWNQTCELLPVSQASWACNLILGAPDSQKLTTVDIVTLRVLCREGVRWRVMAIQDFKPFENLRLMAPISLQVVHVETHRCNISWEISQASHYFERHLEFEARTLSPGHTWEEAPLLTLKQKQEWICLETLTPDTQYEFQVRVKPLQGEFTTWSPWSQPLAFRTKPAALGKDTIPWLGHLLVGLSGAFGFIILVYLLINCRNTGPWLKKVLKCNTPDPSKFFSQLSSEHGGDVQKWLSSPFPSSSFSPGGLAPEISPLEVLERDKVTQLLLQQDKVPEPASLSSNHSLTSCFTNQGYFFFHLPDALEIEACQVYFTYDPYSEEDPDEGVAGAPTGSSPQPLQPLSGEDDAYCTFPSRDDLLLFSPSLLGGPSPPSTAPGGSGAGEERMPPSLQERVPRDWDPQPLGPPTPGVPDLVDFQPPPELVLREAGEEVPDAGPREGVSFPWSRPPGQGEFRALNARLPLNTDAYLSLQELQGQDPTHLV
Chain of UniProt P01589 (P31785 23-369, chain 3 of 3, further chain): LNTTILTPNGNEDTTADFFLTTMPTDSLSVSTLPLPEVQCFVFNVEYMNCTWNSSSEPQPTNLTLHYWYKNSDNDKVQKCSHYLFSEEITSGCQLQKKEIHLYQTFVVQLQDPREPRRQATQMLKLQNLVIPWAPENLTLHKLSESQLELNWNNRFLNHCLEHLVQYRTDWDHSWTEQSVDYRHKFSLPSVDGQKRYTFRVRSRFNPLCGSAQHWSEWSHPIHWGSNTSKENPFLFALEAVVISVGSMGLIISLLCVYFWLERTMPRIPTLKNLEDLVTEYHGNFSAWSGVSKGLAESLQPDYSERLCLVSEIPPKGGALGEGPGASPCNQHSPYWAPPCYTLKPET

With “CD19-muIL2 CAR-engager (from UniProt P15391 20-291)” the EC50 [1] was 0.59 nM.

Molecule “VHH-muIL2 (control construct with an irrelevant nanobody in place of the BCMA ectodomain in the CH3-muIL2 construct)” has a phosphorylation of STAT5 (pY694) in BCMA CAR T cells, EC50 [2] of 3.9 nM.

In the case of “BCMA-muIL2 CAR-engager (BCMA-CH3-muIL2-muIL2)”, the sensitivity of STAT5 phosphorylation against VHH-muIL2 [3] is reported as > 200 fold, the phosphorylation of STAT5 (pY694) in BCMA CAR T cells, EC50 [2] is reported as 0.014 nM and the EC50 [4] is reported as 0.21 nM.

B1: BCMA-CH3 (dimeric BCMA lacking the muIL2) (protein)
chain: MLQMAGQCSQNEYFDSLLHACIPCQLRCSSNTPPLTCQRYCNASVTNSVKGTNAEPKSPKSADKTHTAPQPREPQVYTLPPSRDELTKNQVSLTCLVKGFYPSDIAVEWESNGQPENNYKTTPPVLDSDGSFFLYSKLTVDKSRWQQGNVFSCSVMHEALHNHYTQKSLSLSPGK
In the case of B1, the EC50 (read off the curve) [5] is reported as 0.2 nM, the percent of cells in the upper right quadrant (CD45+ AF647+) [6] is reported as 2.69% and the percent of cells in the upper right quadrant (CD45+ AF647+) [7] is reported as 0.69%. For the same molecule, the percent of cells in the upper right quadrant (CD45+ AF647+) [8] was 3.97%, the percent of cells in the upper right quadrant (CD45+ AF647+) [9] was 47.4% and the percent of cells in the upper right quadrant (CD45+ AF647+) [10] was 1.69%. For the same molecule, the percent of cells in the upper right quadrant (CD45+ AF647+) [11] was 1.38%, the percent of cells in the upper right quadrant (CD45+ AF647+) [12] was 12.2% and the percent of cells in the upper right quadrant (CD45+ AF647+) [13] was 0.75%. The percent of cells in the upper right quadrant (CD45+ AF647+) [14] was 1.01%, the percent of cells in the upper right quadrant (CD45+ AF647+) [15] was 0.096% and the percent of cells in the upper right quadrant (CD45+ AF647+) [16] was 0.18%. The percent of cells in the upper right quadrant (CD45+ AF647+) [17] was 0.13%, the percent of cells in the upper right quadrant (CD45+ AF647+) [18] was 0.2% and the percent of cells in the upper right quadrant (CD45+ AF647+) [19] was 0.058%. The percent of cells in the upper right quadrant (CD45+ AF647+) [20] was 0.13%, the percent of cells in the upper right quadrant (CD45+ AF647+) [21] was 0.00572% and the percent of cells in the upper right quadrant (CD45+ AF647+) [22] was 0.044%. The percent of cells in the upper right quadrant (CD45+ AF647+) [23] was 0.21%, the percent of cells in the upper right quadrant (CD45+ AF647+) [24] was 5.26% and the percent of cells in the upper right quadrant (CD45+ AF647+) [25] was 1.08%. The percent of cells in the upper right quadrant (CD45+ AF647+) [26] was 0.013%, the percent of cells in the upper right quadrant (CD45+ AF647+) [27] was 0.054% and the percent of cells in the upper right quadrant (CD45+ AF647+) [28] was 0.032%. The percent of cells in the upper right quadrant (CD45+ AF647+) [29] was 0.02%.

B2: BCMA-CH3-Neo-2/15 CAR-engager (protein)
chain: MLQMAGQCSQNEYFDSLLHACIPCQLRCSSNTPPLTCQRYCNASVTNSVKGTNAEPKSPKSADKTHTAPQPREPQVYTLPPSRDELTKNQVSLTCLVKGFYPSDIAVEWESNGQPENNYKTTPPVLDSDGSFFLYSKLTVDKSRWQQGNVFSCSVMHEALHNHYTQKSLSLSPGKGSHMPKKKIQLHAEHALYDALMILNIVKTNSPPAEEKLEDYAFNFELILEEIARLFESGDQKDEAEKAKRMKEWMKRIKTTASEDEQEEMANAIITILQSWIFS
B2 was tested, and the lowest threshold of induced expression of CD69 in CAR T cells [30] was 0.01 nM.
